Experimental data from patent US20210395392A1 (Bristol-Myers Squibb, published 2021).
Changes are numbered by the printed parent chain. Values belong to the binder of their own block, whether it stands above or below them.

Tests used:
[1] = target: T1, Mouse MerTK on mMerTK-expressing cells (mouse, UniProt Q60805 19-994); assay: binding to mMerTK-expressing cells; SPR not run
T1 construct: Receptor construct of the signaling assay is not described
T1 sequence: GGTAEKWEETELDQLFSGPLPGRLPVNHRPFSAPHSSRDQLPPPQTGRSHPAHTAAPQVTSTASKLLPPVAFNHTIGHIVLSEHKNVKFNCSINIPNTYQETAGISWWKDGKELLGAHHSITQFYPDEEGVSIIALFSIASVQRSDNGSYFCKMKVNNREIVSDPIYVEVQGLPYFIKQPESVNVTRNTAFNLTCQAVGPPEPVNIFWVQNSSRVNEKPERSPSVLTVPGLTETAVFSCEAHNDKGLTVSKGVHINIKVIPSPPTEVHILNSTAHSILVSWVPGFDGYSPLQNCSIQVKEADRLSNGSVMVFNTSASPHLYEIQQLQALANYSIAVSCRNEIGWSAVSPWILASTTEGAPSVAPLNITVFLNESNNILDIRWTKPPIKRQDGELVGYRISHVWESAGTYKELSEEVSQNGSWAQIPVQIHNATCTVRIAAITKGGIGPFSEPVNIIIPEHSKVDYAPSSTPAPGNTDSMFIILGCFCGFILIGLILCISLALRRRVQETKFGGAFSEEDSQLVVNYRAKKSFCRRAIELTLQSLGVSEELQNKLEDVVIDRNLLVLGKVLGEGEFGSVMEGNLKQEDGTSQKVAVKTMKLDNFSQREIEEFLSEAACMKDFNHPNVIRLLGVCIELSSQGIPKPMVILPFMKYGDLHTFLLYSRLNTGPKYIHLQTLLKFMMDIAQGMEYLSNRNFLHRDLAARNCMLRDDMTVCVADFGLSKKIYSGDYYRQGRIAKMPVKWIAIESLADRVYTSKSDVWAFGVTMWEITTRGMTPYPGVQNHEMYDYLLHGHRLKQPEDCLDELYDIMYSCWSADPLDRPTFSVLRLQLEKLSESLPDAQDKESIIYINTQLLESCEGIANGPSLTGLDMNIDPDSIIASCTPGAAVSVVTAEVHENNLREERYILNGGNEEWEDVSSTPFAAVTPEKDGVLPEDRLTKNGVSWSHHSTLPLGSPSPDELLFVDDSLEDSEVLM

[2] = target: T2, Human MerTK on hMerTK-expressing cells (human, UniProt Q12866 21-999); assay: cell-based or functional assay
T2 sequence: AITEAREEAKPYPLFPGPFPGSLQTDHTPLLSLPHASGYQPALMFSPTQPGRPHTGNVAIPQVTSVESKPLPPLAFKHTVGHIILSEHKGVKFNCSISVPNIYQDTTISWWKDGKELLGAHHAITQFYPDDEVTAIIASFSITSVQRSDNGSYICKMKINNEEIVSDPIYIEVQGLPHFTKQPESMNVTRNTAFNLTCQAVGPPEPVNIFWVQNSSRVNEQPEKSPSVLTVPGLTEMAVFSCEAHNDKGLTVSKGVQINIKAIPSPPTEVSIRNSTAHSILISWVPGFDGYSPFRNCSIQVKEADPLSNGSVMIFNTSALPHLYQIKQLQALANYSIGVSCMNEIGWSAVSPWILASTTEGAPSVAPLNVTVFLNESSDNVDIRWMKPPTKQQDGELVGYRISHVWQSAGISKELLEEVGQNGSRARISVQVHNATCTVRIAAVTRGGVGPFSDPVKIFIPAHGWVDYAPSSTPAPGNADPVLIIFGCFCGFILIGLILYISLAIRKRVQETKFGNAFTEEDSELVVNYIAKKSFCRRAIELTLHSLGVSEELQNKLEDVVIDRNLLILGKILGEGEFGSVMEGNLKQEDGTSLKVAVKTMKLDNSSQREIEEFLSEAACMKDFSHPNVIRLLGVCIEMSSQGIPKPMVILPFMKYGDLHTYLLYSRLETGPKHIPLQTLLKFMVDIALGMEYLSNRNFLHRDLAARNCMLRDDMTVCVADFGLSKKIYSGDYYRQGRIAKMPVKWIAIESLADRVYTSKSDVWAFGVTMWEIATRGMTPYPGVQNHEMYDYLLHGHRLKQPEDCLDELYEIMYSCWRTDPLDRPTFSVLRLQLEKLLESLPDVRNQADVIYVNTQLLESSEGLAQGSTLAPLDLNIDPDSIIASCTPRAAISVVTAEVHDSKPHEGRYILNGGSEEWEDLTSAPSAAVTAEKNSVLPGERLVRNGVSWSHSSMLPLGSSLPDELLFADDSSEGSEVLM

[3] = target: T3, Recombinant soluble extracellular domain of mouse MerTK (mouse, UniProt Q60805 19-497); assay: summary sentence of the description; assay not named
T3 construct: SPR analyte; also called mMerTK
T3 sequence: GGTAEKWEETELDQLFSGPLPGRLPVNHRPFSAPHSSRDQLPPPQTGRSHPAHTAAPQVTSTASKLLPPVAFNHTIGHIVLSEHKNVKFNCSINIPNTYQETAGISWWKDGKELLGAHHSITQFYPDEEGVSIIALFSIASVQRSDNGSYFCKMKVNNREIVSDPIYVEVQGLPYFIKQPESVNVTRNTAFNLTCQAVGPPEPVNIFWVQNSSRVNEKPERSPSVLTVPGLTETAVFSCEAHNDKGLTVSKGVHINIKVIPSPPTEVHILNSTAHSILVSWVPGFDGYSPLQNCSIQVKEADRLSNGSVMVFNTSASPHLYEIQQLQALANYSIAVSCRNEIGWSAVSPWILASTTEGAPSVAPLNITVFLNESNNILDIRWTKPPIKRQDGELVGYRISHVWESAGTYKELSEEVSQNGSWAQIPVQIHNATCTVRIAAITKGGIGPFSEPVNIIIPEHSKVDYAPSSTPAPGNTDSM

binding result [1]: no binding
Inhibition of Efferocytosis IC50 [2]: 0.051 nM
Signaling Assay, hMerTK with Gas6, pSTAT1 IC50 (nM) [2]: 0.093 nM
Signaling Assay, hMerTK without Gas6, pSTAT1 IC50 (nM) [2]: > 100 nM
binding result [3]: no binding
B1: HuMAb 25J60 (antibody, human IgG1, kappa, V domains shown)
VH: QVQLVQSGAEVKKPGASVKVSCKTSGNTQIRYYMYWVRQAPGQGLEWMGILNPNQDQTTYAQKFQGRVTMTRDTSTSTVYMELSSLRSEDTAVYYCATTYRYYMDVWGQGTTVTVSS
VL: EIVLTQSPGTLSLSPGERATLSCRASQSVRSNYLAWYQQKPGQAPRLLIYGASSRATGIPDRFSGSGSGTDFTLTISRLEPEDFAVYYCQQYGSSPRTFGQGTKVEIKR
notes: Human anti-hMerTK mAb, Bin 2, derived from HuMAb 25B10 by optimization

binding result [1]: no binding
Inhibition of Efferocytosis IC50 [2]: 0.093 nM
Signaling Assay, hMerTK with Gas6, pSTAT1 IC50 (nM) [2]: 0.227 nM
Signaling Assay, hMerTK without Gas6, pSTAT1 IC50 (nM) [2]: > 100 nM
binding result [3]: no binding
B2: HuMAb 25J80 (antibody, human IgG1, kappa, V domains shown)
VH: B1 VH with N27R, Q29F, Y35H, L51I, N52W, Q55G, R101K, Y103A
VL: EIVLTQSPGTLSLSPGERATLSCRASQSVRSNYLAWYQQKPGQAPRLLIYGASSRATGIPDRFSGSGSGTDFTLTISRLEPEDFAVYYCQQYESPPRTFGQGTKVEIKR
notes: as for B1

binding result [1]: no binding
Inhibition of Efferocytosis IC50 [2]: 0.047 nM
Signaling Assay, hMerTK with Gas6, pSTAT1 IC50 (nM) [2]: 0.572 nM
Signaling Assay, hMerTK without Gas6, pSTAT1 IC50 (nM) [2]: > 100 nM
binding result [3]: no binding
B3: HuMAb 8N42 (antibody, V domains shown)
VH: QVQLQQWGAGLLKPSETLSLTCAVYGGSFSIYYWSWIRQPPGKGLELIGEINDEGNTNYNPSLKSRVTISVDTSKNQFSLKLSSVTAADTAVYYCARGGTGDIHAFDIWGQGTMVTVSS
VL: DIQMTQSPSSLSASVGDRVTITCRASQGISKWLAWYQQKPEKAPKSLIYAASSLQSGVPSRFSGSGSGTDFTLTISSLQPEDFATYYCQQYNSYPWTFGQGTKVEIKR
notes: Human anti-hMerTK mAb, Bin 1

binding result [1]: no binding
Inhibition of Efferocytosis IC50 [2]: 0.072 nM
Signaling Assay, hMerTK with Gas6, pSTAT1 IC50 (nM) [2]: 0.33 nM
Signaling Assay, hMerTK without Gas6, pSTAT1 IC50 (nM) [2]: > 100 nM
binding result [3]: no binding
B4: HuMAb 1B4 (antibody, human IgG1, kappa, V domains shown)
VH: QLQLQESGPGLVKPSETLSLTCAVSGYSISSGNYWGWIRQSPGKGLEWIGSVDHSGSTYYSPSLKSRVTISVDTSKNQFSLKLNSVTAADTADYYCARNTMIRGVMDWFDPWGQGTLVTVSS
VL: AIQLTQSPSSLSASVGDRVTITCRASQGISSALAWYQQKPGKAPKVLIYDASSLESGVPSRFSGSGSGTDFTLTISSLQPEDFATYYCQQFRSYPTFGQGTKVEIKR
notes: Human anti-hMerTK mAb, Bin 1

binding result [1]: no binding
Inhibition of Efferocytosis IC50 [2]: 0.352 nM
Signaling Assay, hMerTK with Gas6, pSTAT1 IC50 (nM) [2]: 3.41 nM
Signaling Assay, hMerTK without Gas6, pSTAT1 IC50 (nM) [2]: > 100 nM
binding result [3]: no binding
B5: HuMAb 22I16 (antibody, human IgG1, kappa, V domains shown)
VH: EVQLVESGGGLVQPGGSLRLSCAASGFTFSSYSMNWVRQAPGKGLEWVSYIISGSDTIFYADSVKGRFTISRDNAKNSLYLQMNSLRDEDTAVYYCARDETVVRGVINYFDYWGQGTLVTVSS
VL: B4 VL with A25S, V46L, R92I, K102R, V103L
notes: Human anti-hMerTK mAb, Bin 1; also called 22116

binding result [1]: no binding
Inhibition of Efferocytosis IC50 [2]: > 10 nM
Signaling Assay, hMerTK with Gas6, pSTAT1 IC50 (nM) [2]: 5.42 nM
binding result [3]: no binding
B6: HuMAb 4K10 (antibody, human IgG1, kappa, V domains shown)
VH: QVQLQQWGAGLLKPSETLSLTCAVYGGSFSGYYWSWLRQPPGKGLEWIGEISHSGSTNYNPSLKSRVTISVDTSKNQFSLKLSSVTAADTAVYYCARALSRYWYFDLWGRGTLVTVSS
VL: EIVLTQSPATLSLSPGERATLSCRASQSASNYLAWYQQKPGQAPRLLIYDASNRATGIPARFSGSGSGTDFTLTISSLEPEDFAVYYCYQRSQWPISFGQGTRLEIKR
notes: Human anti-hMerTK mAb, Bin 3
